Results as given in PMC12489471, “A multi-dentate, cooperative interaction between endo- and exo-ribonucleases within the bacterial RNA degradosome” (Nucleic Acids Research, 2025).

B1: RNase E 960 – 1061 R1056A (domain or fragment, E. coli, UniProt P21513 960-1061, looked up)
chain: VVETAEVVVAEPEVVAQPAAPVVAEVAAEVETVAAVEPEVTVEHNHATAPMTRAPAPEYVPEAPRHSDWQRPTFAFEGKGAAGGHTATHHASAAPAAPQPVE
notes: source: E. coli Evo21(DE3), purified (Ni-NTA, amylose, TEV cleavage, Q, SEC); not shown: His6, N-terminal, cleaved; MBP, N-terminal, cleaved; intein, C-terminal, cleaved
B2: RNase E 985-1053 (domain or fragment, E. coli, UniProt P21513 985-1053, looked up)
chain: VAAEVETVAAVEPEVTVEHNHATAPMTRAPAPEYVPEAPRHSDWQRPTFAFEGKGAAGGHTATHHASAA
notes: the SPR methods name a peptide 960–1053; Lacks the terminal Pro-rich motif; Limits differ between results (985–1053) and methods (960–1053); also called RNase E peptide 985–1053; RNase E 960–1053 (methods); source: E. coli Evo21(DE3), pMxe vector, purified (Ni-NTA, amylose, TEV, Q, Superdex 75); not shown: His6, N-terminal, cleaved; MBP, N-terminal, cleaved; intein, C-terminal, cleaved
B3: E. coli PNPase core (domain or fragment, UniProt P05055 1-552, looked up)
chain: MLNPIVRKFQYGQHTVTLETGMMARQATAAVMVSMDDTAVFVTVVGQKKAKPGQDFFPLTVNYQERTYAAGRIPGSFFRREGRPSEGETLIARLIDRPIRPLFPEGFVNEVQVIATVVSVNPQVNPDIVAMIGASAALSLSGIPFNGPIGAARVGYINDQYVLNPTQDELKESKLDLVVAGTEAAVLMVESEAQLLSEDQMLGAVVFGHEQQQVVIQNINELVKEAGKPRWDWQPEPVNEALNARVAALAEARLSDAYRITDKQERYAQVDVIKSETIATLLAEDETLDENELGEILHAIEKNVVRSRVLAGEPRIDGREKDMIRGLDVRTGVLPRTHGSALFTRGETQALVTATLGTARDAQVLDELMGERTDTFLFHYNFPPYSVGETGMVGSPKRREIGHGRLAKRGVLAVMPDMDKFPYTVRVVSEITESNGSSSMASVCGASLALMDAGVPIKAAVAGIAMGLVKEGDNYVVLSDILGDEDHLGDMDFKVAGSRDGISALQMDIKIEGITKEIMQVALNQAKGARLHILGVMEQAINAPRGDISEFA
notes: polynucleotide phosphorylase (PNPase) core lacking the KH and S1 domains, E. coli, aa 1–552 by the methods (1–550 in the results and a legend); also called PNPase core (1–550); PNPase core (aa 1–552); source: E. coli Evo21(DE3), purified (Ni-NTA, intein cleavage, HIC, Q, Superdex 200); not shown: Mycobacterium xenopi GyrA intein, C-terminal, cleaved; His8, C-terminal, cleaved
B4: E. coli RNase E 921–1061-muGFP (domain or fragment, UniProt P21513 921-1061, looked up)
chain: AVTEQPQVITESDVAVAQEVAEQAEPVVEPQEETADIEEVVETAEVVVAEPEVVAQPAAPVVAEVAAEVETVAAVEPEVTVEHNHATAPMTRAPAPEYVPEAPRHSDWQRPTFAFEGKGAAGGHTATHHASAAPARPQPVE
notes: Only residues 1003–1057 are built in the model; also called RNase E-muGFP-Chis; RNE-muGFP-CHis; source: E. coli Evo21(DE3), purified (Ni-NTA, amylose, TEV, Q, Superdex 200); not shown: MBP, N-terminal, cleaved; muGFP, C-terminal, kept; His8, C-terminal, kept
B5: RNase E 921–1061-muGFP (protein, UniProt P21513 921-1061, looked up, fragment)
chain: B4 chain
modifications: muGFP fusion

What was measured:
[1] = target: S. enterica PNPase core (Salmonella enterica serovar Typhimurium) (UniProt Q8ZLT3); assay: cryo-EM structure; purified PNPase core and RNase E-muGFP-CHis mixed 1:2, complex separated on Superdex 200 Increase in 20 mM Tris–HCl pH 8.0, 25 mM MgCl2, 150 mM KCl, 1 mM TCEP; 8 mM CHAPSO; E. coli and S. enterica proteins
[2] = target: T1, PNPase carrying a C-terminal Hisx6 tag (E. coli polynucleotide phosphorylase) (E. coli, UniProt P05055 1-711); assay: SPR; conditions: both partners purified
T1 construct: Held on the NTA chip by its His tag in the SPR; also called PNPase C-His; PNPCHis; source: E. coli Evo21(DE3), purified (Ni-NTA, butyl-Sepharose, Q, SEC); not shown: His6, C-terminal, kept
T1 sequence (looked up): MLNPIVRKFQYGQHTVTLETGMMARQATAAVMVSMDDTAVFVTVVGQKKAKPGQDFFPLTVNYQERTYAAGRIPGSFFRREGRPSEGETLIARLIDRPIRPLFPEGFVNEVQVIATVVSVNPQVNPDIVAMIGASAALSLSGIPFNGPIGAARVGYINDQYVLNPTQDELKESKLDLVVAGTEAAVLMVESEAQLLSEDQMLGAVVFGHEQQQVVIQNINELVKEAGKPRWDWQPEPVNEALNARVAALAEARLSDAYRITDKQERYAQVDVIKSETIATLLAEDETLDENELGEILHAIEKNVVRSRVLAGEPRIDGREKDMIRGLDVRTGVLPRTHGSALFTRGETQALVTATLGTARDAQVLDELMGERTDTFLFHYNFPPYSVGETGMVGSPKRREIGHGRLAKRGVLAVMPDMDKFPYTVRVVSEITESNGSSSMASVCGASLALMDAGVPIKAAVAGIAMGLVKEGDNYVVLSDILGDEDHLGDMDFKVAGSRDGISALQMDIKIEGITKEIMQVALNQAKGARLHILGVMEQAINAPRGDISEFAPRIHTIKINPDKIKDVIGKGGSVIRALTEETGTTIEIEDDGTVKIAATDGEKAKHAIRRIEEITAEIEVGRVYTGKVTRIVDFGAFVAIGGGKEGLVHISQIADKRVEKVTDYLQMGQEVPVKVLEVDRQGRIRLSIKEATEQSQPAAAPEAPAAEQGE

[3] = target: T2, PNPase carrying a C-terminal Hisx6 tag (E. coli polynucleotide phosphorylase) (E. coli, UniProt P05055 1-711); assay: SPR; PNPase with C-terminal His6 tag immobilised on Series S Sensor Chip NTA (5 RU); Biacore T200, 25°C; 20 mM HEPES pH 7.2, 150 mM NaCl, 5 mM MgCl2, 0.5 mM TCEP, 0.05% Tween 20; six peptide concentrations up to 9000 nM (up to 5000 nM for RNase E 985–1061); contact 60 s, dissociation 120 s; conditions: both partners purified
T2 construct: polynucleotide phosphorylase (PNPase), E. coli; Immobilised through the His tag on an NTA chip for SPR; also called PNPase C-His; PNPase with a 6xHisTag at the CTD; source: E. coli Evo21(DE3), purified (Ni-NTA, butyl-Sepharose HIC, Q, Superdex S200); not shown: His6, C-terminal, kept
T2 sequence (looked up): T1 sequence (looked up)

[4] = target: T2, PNPase carrying a C-terminal Hisx6 tag …; assay: as above; conditions: both partners purified; remark: listed apart in the source
[5] = target: the molecule itself; assay: cryo-EM structure; PNPase core with RNase E peptide 960–1061; resolution of the peptide insufficient to align the sequence
E. coli PNPase core = target: B3; assay: cryo-EM structure; purified PNPase core and RNase E-muGFP-CHis mixed 1:2, complex separated on Superdex 200 Increase in 20 mM Tris–HCl pH 8.0, 25 mM MgCl2, 150 mM KCl, 1 mM TCEP; 8 mM CHAPSO; E. coli and S. enterica proteins; conditions: both partners purified
PNPase core = assay: Cryo-EM of E. coli PNPase core:RNase E complex; assay type: binding; conditions: 20 mM Tris–HCl pH 8.0, 25 mM MgCl2, 150 mM KCl, 1 mM TCEP
Method: The PNPase core encoding sequence from E. coli (aa 1–552), Salmonella enterica serovar Typhimurium (UniProt: Q8ZLT3) (aa 1–552), or Pseudomonas aeruginosa (strain PAO1, UniProt: Q9HV59) (aa 1–553) was amplified using corresponding genomic DNA as a template and cloned into pExp-Mxe-CHis expression vector. The protein of interest, produced as a fusion with C-terminal 8×His-tagged Mycobacterium xenopi GyrA intein, was expressed in Evo21(DE3) cells at 18°C overnight following induction with 0.4 mM IPTG. […] After cleavage, the protein buffer was exchanged using HiPrep 26/10 desalting column (Cytiva), and the protein solution was reapplied to Ni-NTA resin to remove His-tagged intein and uncleaved material. […]
Purified PNPase core and RNE-muGFP-CHis proteins were mixed in 1:2 ratio and their complex were separated on the Superdex 200 Increase 10/300 GL column (Cytiva) equilibrated with cryo-EM Buffer (20 mM Tris–HCl, pH 8.0, 25 mM MgCl2, 150 mM KCl, 1 mM TCEP). […] The samples were mixed with CHAPSO (3-([3-cholamidopropyl]dimethylammonio)-2-hydroxy-1-propanesulfonate) at a final concentration of 8 mM before being applied onto R2/2 Au Ultrafoil grids (Quantifoil) that had been pre-treated by glow-discharge (PELCO easiGLOW: 60 s, 25 mA, 0.39 mBar). […]

With “S. enterica RNase E 921–1067-muGFP (domain or fragment)” the stoichiometry N (RNase E peptide per PNPase trimer) [1] was 1.

Molecule B1 has a kon [2] of 150000 M⁻¹ s⁻¹.

B2 was tested, and the Kd [3] was 100 µM, the Kd [4] was 11.5 µM and the koff [4] was 0.339 s⁻¹. It also gave a kon [4] of 29400 M⁻¹ s⁻¹.

B3 was tested, and the “stoichiometry N” value [5] was 3.

In the case of B4, the “stoichiometry N” value (E. coli PNPase core) is reported as 1 RNase E peptide per PNPase trimer.

B5 was tested, and the “binding mode / stoichiometry with E. coli PNPase core” value (PNPase core) was “only one RNase E peptide engages with a PNPase trimer, interacting with two protomers”.
